{
  "source": "paper PMC12155429",
  "about": "“PTPA Governs Stress-Responsive Differentiation and Metabolic Homeostasis in Toxoplasma gondii” (Cells, 2025)",
  "binders": {"B1": {"name": "pMAL–PP2AC–HA (Toxoplasma gondii PP2A C subunit) (enzyme, UniProt A0A125YNB3 1-347, looked up)", "chain": "MSGATPGAVAALQPASAAPALFTIPADVAPSDLPDHYLGQEELRGIDKQMEKLFKCEKLDEEEVRSLCAVLKDILVQEANVQPVRTPVTVVGDIHGQFHDLLEIFKCAGTCPSVNFLFLGDYVDRGLNSVESVSLVFLLKVRYRHRVTLIRGNHESRQITQVYGFYDECLRKYGNANVWNYFTDVFDYLPLSALIEDQIFCPHAGLSPTIETLDHVRLLERFQEVPHEGPMCDLLWSDPEEQMPGWGMSPRGAGYTFGQDISEKFNHVNGLKLIARAHQLIMEGFQWSQANNVVTIFSAPNYCYRCGNQAAIMKIDEHMNYTFIQFNPSLLQASGADMQKRIPDYFL", "notes": "PP2A C subunit of Toxoplasma gondii (TGME49_224220), amplified from Toxoplasma cDNA; printed length 347 aa, ~80 kDa with the pMAL tag; also called PP2A catalytic (C) subunit; source: E. coli, purified (MBPSep Dextrin Agarose Resin, eluted with 10 mM maltose); not shown: MBP (from the vector pMAL)"}},
  "target": "T1, pMAL–PP2AA–His (Toxoplasma gondii PP2A A subunit) (Toxoplasma gondii, UniProt S8EX93 1-766)",
  "T1 construct": "PP2A A subunit of Toxoplasma gondii (TGME49_315670), amplified from Toxoplasma cDNA; printed length 766 aa, ~130 kDa with the pMAL tag; also called PP2A scaffold (A) subunit; source: E. coli, purified (MBPSep Dextrin Agarose Resin, eluted with 10 mM maltose); not shown: MBP (from the vector pMAL)",
  "T1 sequence (looked up)": "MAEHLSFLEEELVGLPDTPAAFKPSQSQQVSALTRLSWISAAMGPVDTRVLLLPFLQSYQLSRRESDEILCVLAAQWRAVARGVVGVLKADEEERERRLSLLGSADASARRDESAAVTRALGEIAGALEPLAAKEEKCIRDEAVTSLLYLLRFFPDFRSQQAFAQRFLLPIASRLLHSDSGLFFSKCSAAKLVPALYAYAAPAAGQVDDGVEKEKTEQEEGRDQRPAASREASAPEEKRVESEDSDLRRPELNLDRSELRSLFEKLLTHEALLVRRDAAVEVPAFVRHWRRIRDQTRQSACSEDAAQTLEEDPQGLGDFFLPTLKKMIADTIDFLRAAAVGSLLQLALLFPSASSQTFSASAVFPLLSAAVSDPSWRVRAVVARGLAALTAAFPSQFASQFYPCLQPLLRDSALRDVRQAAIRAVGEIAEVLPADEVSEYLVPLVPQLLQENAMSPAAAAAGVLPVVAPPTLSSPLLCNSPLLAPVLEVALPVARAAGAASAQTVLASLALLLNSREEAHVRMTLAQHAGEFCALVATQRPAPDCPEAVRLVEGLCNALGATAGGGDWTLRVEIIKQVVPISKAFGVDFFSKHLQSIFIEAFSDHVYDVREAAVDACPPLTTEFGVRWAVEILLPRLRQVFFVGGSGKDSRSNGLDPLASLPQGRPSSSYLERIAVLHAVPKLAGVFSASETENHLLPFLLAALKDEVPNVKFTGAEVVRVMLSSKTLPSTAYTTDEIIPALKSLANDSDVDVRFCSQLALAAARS",
  "experiment": "pull-down; anti-His or anti-HA magnetic beads washed with TBS, incubated with the tagged protein 5 h at 4 °C, then with the target protein 5 h; washed, eluted, Western blot",
  "settings": "both partners purified",
  "data": [
    {"binder": "B1", "values": [
      {"measurement": "binding result", "result": "binds"}
    ]}
  ]
}
